Experimental data reported in publication PMC8189816, “Molecular Basis for the Interactions of Human Thioredoxins with Their Respective Reductases” (Oxidative Medicine and Cellular Longevity, 2021).
Positions count from the first letter of the chain named. In names and notes the source's numbering stands.

T1: recombinant selenocysteine-containing rat TrxR1 (rat, UniProt O89049 1-499, selenocysteine (selenocysteine-containing; low degree of incorporation presumed by the paper))
T1 construct: rat cytosolic thioredoxin reductase 1, selenocysteine-containing; Used for all enzymatic assays (insulin reduction); also called recombinant selenocysteine-containing TrxR
T1 sequence (looked up): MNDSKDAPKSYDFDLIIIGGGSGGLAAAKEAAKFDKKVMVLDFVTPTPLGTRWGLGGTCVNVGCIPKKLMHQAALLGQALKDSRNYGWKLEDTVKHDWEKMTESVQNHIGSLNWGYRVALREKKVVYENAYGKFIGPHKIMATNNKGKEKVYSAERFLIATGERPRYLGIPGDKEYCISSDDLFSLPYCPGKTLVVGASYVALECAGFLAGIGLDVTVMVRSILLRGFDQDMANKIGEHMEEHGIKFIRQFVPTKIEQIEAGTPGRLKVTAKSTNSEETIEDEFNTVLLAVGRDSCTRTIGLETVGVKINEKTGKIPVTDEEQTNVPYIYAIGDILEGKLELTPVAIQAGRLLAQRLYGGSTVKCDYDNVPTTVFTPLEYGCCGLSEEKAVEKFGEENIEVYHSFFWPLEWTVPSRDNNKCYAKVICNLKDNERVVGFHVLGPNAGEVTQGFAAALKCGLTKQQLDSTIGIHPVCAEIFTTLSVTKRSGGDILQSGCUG

B1: human Trx1 K39E (natural protein)
chain: MVKQIESKTAFQEALDAAGDKLVVVDFSATWCGPCKMIEPFFHSLSEKYSNVIFLEVDVDDCQDVASECEVKCMPTFQFFKKGQKVGEFSGANKEKLEATINELV
B2: human Trx1 K36E (natural protein)
chain: B1 chain with K36E, E39K
B3: human thioredoxin 1 (Trx1), wild-type (natural protein)
chain: B1 chain with E39K
B4: human Trx1 C32,35S (redox-inactive active site double mutant) (natural protein, UniProt P10599 1-105, looked up)
chain: B1 chain with C32S, C35S, E39K
notes: human cytosolic thioredoxin 1, both active site cysteinyl residues exchanged for seryl residues; also called hTrx1C32,35S; double cysteinyl mutant
B5: human Trx1 K94E (natural protein)
chain: B1 chain with E39K, K94E
B6: human Trx1 A17R,I53R (natural protein)
chain: B1 chain with A17R, E39K, I53R
B7: human Trx1 Q63R,K94E (natural protein)
chain: B1 chain with E39K, Q63R, K94E
B8: human Trx1 D60N (natural protein)
chain: B1 chain with E39K, D60N
B9: human Trx1 Q63R (natural protein)
chain: B1 chain with E39K, Q63R
B10: human Trx1 K72E (natural protein)
chain: B1 chain with E39K, K72E
B11: human Trx1 C73H (natural protein)
chain: B1 chain with E39K, C73H
B12: human Trx1 D58,60,61N (natural protein)
chain: B1 chain with E39K, D58N, D60N, D61N
B13: human Trx1 S67H (natural protein)
chain: B1 chain with E39K, S67H

These binders were tested against human thioredoxin reductase 1 (TrxR1) U498C mutant (human) (UniProt Q16881) (assay: differential scanning fluorimetry; 10 uM hTrxR (U498C), hTrx1 0 to 100 uM, Sypro Orange 1:500, 50 mM Tris, 1 mM EDTA, pH 7.4; Tm of the first denaturation step of TrxR plotted against log [Trx] (Hill plot), EC50 converted to Kd). Settings: not given.

Binder | Kd
B1 | 9.68 µM
B2 | 5.28 µM
B3 | 13.6 µM
B4 | 9.8 µM

What follows are binders tested against T1, recombinant selenocysteine-containing … (assay: enzyme inhibition kinetics (insulin reduction assay, NADPH depletion); 1.25 nM recombinant rat selenocysteine-containing TrxR, 150 uM NADPH, 160 uM insulin, 50 mM Tris-EDTA pH 7.5; Lineweaver-Burk plots, Ki from secondary plot of slopes against the concentration of the redox-inactive mutant). Settings: both partners purified.

Binder | Ki
B4 | 5.3 µM

The binders below were run against recombinant selenocysteine-containing rat TrxR1 (rat) (UniProt O89049) (assay: not given). Settings: not given.

Binder | KM of TrxR1 for the Trx1 variant, insulin reduction-coupled assay
B1 | 1.45 µM
B5 | 3.78 µM
B6 | 2.73 µM
B2 | 9.82 µM
B7 | 7.09 µM
B8 | 3.26 µM
B9 | 6.37 µM
B10 | 2.22 µM
B11 | 1.24 µM
B12 | 5.83 µM
B13 | 1.36 µM
